Like-named read-outs stand apart in the source and are kept apart here.
Columns and labels:
[1] = target: T1, Interferon receptors on Daudi cells (UniProt P17181); test: cell-based or functional assay
T1 sequence (looked up) 1: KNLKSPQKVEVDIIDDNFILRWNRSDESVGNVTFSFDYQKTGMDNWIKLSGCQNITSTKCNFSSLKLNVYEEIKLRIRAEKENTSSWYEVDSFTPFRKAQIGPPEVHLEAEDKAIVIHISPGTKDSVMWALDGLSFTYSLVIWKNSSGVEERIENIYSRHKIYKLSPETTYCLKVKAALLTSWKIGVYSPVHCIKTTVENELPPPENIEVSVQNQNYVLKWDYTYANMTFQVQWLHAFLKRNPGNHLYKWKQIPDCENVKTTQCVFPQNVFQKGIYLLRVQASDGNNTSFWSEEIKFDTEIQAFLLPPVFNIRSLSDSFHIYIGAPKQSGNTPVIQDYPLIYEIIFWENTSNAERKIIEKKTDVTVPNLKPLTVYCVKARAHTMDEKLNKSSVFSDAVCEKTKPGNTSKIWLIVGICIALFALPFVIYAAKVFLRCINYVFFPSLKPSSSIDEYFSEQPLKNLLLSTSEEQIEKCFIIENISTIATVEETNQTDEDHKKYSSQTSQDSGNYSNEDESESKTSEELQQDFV
T1 sequence (looked up) 2: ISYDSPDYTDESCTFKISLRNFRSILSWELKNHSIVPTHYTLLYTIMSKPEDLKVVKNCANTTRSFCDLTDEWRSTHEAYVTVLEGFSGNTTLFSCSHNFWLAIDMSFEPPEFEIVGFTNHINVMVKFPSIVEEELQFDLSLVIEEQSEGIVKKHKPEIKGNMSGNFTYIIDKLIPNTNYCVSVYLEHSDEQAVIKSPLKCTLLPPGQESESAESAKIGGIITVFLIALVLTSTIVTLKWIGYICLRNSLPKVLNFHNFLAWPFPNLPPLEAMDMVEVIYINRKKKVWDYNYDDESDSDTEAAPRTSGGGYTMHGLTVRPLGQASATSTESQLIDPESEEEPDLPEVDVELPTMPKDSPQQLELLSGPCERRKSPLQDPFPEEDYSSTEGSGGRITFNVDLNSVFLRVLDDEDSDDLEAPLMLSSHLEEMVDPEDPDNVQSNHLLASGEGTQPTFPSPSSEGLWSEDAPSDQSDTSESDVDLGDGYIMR

[2] = target: T2, OX40 on reporter cells (Jurkat-OX40-NFκB-luciferase; HEK293-OX40-NFκB-Luc) (UniProt P43489 29-277); test: cell-based or functional assay
T2 sequence (looked up): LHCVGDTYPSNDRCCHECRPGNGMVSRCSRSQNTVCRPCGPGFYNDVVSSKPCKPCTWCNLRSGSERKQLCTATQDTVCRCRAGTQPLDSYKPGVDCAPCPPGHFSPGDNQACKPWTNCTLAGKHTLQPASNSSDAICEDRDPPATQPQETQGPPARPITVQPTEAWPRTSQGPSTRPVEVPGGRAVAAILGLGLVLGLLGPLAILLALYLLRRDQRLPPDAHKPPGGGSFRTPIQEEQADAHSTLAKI

[3] = target: T2, OX40 on reporter cells …; test: cell-based or functional assay; remark: listed apart in the source
[4] = target: T3, human OX40 protein (human, UniProt P43489 29-216, limits assumed); test: ELISA, plate coated with human OX40 protein, goat-anti-human IgG HRP
T3 construct: also called TNFRSF4; CD134
T3 sequence (looked up): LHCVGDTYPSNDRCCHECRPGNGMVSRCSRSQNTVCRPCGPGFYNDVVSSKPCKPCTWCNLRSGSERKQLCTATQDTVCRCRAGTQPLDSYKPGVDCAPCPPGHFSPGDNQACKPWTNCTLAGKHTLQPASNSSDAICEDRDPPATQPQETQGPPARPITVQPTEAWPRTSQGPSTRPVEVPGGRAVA
Experimental: The next day, the plate was first washed 3 times with 300 μL PBST (Tween 20: 0.5‰), then blocked with 5% BSA/PBS at 100 μL/well for 2 h, and shaken at room temperature, followed by washing 3 times with 300 μL PBST. Gradient dilutions of the fusion protein samples were prepared in PBS, and then added to the 96-well plate at 100 μL/well; the plate was shaken for 1 h at room temperature, followed by washing 3 times with 300 μL PBST. A secondary antibody goat-anti-human IgG HRP solution was prepared and added to the 96-well plate at 100 μL/well, and the plate was shaken for 1 h at room temperature, followed by washing 4 times with 300 μL PBST. TMB was added at 100 μL/well to develop color for 20 min. 0.6N H₂SO₄ was added at 100 μL/well to stop the color development, and the OD values were determined at 450 nm.

[5] = target: T2, OX40 on reporter cells …; test: cell-based or functional assay; remark: listed apart in the source
[6] = target: T3, human OX40 protein; test: ELISA, plate coated with human OX40 protein, mouse-anti-human IgG HRP
Experimental: The next day, the plate was first washed 3 times with 300 μL PBST (Tween 20: 0.5‰), then blocked with 5% BSA/PBS at 100 μL/well for 2 h, and shaken at room temperature, followed by washing 3 times with 300 μL PB ST. Gradient dilutions of the fusion protein samples were prepared in PBS, and then added to the 96-well plate at 100 μL/well; the plate was shaken for 1 h at room temperature, followed by washing 3 times with 300 μL PBST. A mouse-anti-human IgG HRP (GenScript Biotech Corp., Art. No. A01854) solution was prepared and added into the 96-well plate at 100 μL/well, and the plate was shaken for 1 h at room temperature, followed by washing 4 times with 300 μL PBST. TMB was added at 100 μL/well to develop color for 20 min. 0.6N H₂SO₄ was added at 100 μL/well to stop the color development, and the OD (optical density) values were determined at 450 nm.

[7] = target: T4, human OX40 expressed on CHO cells (human, UniProt P43489 29-277); test: FACS on CHO cells transfected with human OX40
T4 construct: whole, on cells; also called hsOX40; CHO-hOX40
T4 sequence (looked up): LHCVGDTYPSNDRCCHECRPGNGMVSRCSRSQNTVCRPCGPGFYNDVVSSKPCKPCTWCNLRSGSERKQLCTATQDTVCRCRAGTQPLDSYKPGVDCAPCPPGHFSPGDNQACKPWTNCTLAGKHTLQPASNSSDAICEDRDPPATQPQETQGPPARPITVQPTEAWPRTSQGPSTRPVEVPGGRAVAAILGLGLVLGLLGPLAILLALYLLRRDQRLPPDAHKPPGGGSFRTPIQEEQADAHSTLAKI

In the case of “pegylated interferon α2 (Pegberon, Xiamen Amoytop Biotech, Batch No. 201811JS19) (ligand)”, the proliferation inhibitory activity on Daudi cells, IC50 [1] is reported as 10.6 µM.

B1: MT01-C1 (antibody, human IgG1, V domains shown)
VH: EVQLVQSGAEVKKPGESLKISCKASGYTFTSYVMHWLRQMPGKGLEWMGYINPYNDGTKYNEKFKGQVTISSDKSISTAYLQWSSLKASDTAMYYCANYYGSKFAMDYWGQGTMVTVSS
VL: DIQMTQSPSSVSASVGDRVTITCRASQDISNYLSWYQQKPGGAVKLLIYYTSRLHSGVPSRFSGSGSGTDYTLTISSLQPEDFATYFCQQGITLPWTFGQGTKVEIK
notes: also called OX40 antibody MT01-C1; OX40 mAb MT01-C1
With B1 the “activate NFκB-luciferase reporter, EC50” value [2] was 0.0452 ng/mL, the “Activation activity of OX40 signaling pathway EC50” value [3] was 0.178 nM and the EC50 [4] was 0.298 µg/mL. The “Activation activity of OX40 signaling pathway EC50” value [5] was 0.325 nM.

B2: MT01-C1 as described in Example 11 (human IgG4 (S228P), κ) (antibody, V domains shown)
VH: EVQLVQSGAEVKKPGESLKISCKASGYTFTSYVMHWLRQMPGKGLEWMGYINPYNDGTKYNEKFKGQVTISSDKSISTAYLQWSSLKASDTAMYYCANYYGSKFAMDYWGQGTMVTVSS
VL: DIQMTQSPSSVSASVGDRVTITCRASQDISNYLSWYQQKPGGAVKLLIYYTSRLHSGVPSRFSGSGSGTDYTLTISSLQPEDFATYFCQQGITLPWTFGQGTKVEIK
notes: also called OX40 antibody MT01-C1; MT01-C1 mAb
For B2, the EC50 [6] was 1.21 nM.

B3: MT01-L1 (antibody, V domains shown)
VH: EVQLQQSGPELVKPGASVKMSCKASGYTFTSYVMHWLKQKPGQGLEWIGYINPYNDGTKYNEKFKGKAKLTSDKSSSTAYMELSSLTSEDSAVYYCANYYGSKFAMDYWGQGTSVTVSS
VL: DIQMTQTTSSLSASLGDRVTISCRASQDISNYLSWYQRKPDGAVKLLIYYTSRLHSGVPSRFSGSGSGADYSLTISNLEQEDIATYFCQQGITLPWTFGGGTKLEIKR
Work on B3 yielded an EC50 [7] of 0.66 µg/mL.
